The target of the experiment is plastidic 70S ribosomes of Arabidopsis thaliana (Arabidopsis thaliana (endogenous)). As to the kind of experiment: co-sedimentation; lysate of Col-0 plants grown at 21 °C layered on a 25% sucrose cushion, 173,292 x g for 20 min; immunoblot of total, supernatant and ribosomal pellet, quantified as R/(R+S); standard ribosome buffer (Mg2+), also with 800 mM KCl (high salt) or 1 mM puromycin.

For “Trigger factor 1 (Tig1), Arabidopsis thaliana chloroplast (natural protein)”, the fraction co-sedimented with ribosomes is 8%.
On to “Trigger factor 2 (Tig2), Arabidopsis thaliana chloroplast (natural protein)”, for which the fraction co-sedimented with ribosomes turned out to be 25%.

The values above are taken from article PMC11731035.
